Source: US20250262210A1 (TRUSTEES OF COLUMBIA UNIVERSITY IN THE CITY OF NEW YORK, published 2025)

Experiments:
Assay in all cases: IP/MS, LZTR1 R810W-FLAG, U87
[1] = target: T1, CTDP1 (human, UniProt Q9Y5B0 1-961, limits assumed)
T1 sequence (looked up): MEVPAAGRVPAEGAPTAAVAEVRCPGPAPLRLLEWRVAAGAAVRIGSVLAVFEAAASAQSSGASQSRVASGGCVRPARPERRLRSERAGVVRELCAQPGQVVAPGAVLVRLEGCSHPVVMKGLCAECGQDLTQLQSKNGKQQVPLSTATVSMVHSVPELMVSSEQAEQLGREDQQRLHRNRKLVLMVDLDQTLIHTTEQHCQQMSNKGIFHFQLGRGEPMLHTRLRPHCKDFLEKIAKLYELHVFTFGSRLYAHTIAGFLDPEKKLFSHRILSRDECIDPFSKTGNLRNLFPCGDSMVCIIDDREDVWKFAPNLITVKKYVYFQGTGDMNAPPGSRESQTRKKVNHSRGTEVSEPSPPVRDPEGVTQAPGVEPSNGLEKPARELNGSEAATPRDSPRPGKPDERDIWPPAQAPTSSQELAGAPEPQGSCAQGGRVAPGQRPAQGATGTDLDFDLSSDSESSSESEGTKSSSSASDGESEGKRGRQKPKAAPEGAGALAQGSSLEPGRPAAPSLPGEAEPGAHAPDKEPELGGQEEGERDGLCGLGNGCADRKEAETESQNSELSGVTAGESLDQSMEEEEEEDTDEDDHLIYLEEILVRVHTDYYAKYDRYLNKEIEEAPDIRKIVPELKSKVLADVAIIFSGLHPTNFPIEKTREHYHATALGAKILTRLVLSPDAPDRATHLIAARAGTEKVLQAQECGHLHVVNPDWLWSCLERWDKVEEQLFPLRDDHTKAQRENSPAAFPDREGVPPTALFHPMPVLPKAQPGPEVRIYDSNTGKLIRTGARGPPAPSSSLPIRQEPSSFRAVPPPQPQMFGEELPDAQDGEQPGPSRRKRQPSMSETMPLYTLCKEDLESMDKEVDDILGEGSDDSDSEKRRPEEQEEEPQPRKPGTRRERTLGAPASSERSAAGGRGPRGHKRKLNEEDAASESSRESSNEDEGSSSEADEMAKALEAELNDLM
Method in brief: (§1)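 Extracted peptides in 3% acetonitrile/0.1% formic acid ran on a 50 cm C18 column into an Orbitrap Fusion, with MaxQuant identification and spectral counting.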

[2] = target: ARHGEF28 (human, UniProt Q8N1W1 1-1705, limits assumed)
Method in brief: as §1

[3] = target: PTPN23 (human, UniProt Q9H3S7 1-1636)
Method in brief: as §1

[4] = target: T2, KIAA1468 (human, UniProt Q9P260 2-1216, limits assumed)
T2 sequence (looked up): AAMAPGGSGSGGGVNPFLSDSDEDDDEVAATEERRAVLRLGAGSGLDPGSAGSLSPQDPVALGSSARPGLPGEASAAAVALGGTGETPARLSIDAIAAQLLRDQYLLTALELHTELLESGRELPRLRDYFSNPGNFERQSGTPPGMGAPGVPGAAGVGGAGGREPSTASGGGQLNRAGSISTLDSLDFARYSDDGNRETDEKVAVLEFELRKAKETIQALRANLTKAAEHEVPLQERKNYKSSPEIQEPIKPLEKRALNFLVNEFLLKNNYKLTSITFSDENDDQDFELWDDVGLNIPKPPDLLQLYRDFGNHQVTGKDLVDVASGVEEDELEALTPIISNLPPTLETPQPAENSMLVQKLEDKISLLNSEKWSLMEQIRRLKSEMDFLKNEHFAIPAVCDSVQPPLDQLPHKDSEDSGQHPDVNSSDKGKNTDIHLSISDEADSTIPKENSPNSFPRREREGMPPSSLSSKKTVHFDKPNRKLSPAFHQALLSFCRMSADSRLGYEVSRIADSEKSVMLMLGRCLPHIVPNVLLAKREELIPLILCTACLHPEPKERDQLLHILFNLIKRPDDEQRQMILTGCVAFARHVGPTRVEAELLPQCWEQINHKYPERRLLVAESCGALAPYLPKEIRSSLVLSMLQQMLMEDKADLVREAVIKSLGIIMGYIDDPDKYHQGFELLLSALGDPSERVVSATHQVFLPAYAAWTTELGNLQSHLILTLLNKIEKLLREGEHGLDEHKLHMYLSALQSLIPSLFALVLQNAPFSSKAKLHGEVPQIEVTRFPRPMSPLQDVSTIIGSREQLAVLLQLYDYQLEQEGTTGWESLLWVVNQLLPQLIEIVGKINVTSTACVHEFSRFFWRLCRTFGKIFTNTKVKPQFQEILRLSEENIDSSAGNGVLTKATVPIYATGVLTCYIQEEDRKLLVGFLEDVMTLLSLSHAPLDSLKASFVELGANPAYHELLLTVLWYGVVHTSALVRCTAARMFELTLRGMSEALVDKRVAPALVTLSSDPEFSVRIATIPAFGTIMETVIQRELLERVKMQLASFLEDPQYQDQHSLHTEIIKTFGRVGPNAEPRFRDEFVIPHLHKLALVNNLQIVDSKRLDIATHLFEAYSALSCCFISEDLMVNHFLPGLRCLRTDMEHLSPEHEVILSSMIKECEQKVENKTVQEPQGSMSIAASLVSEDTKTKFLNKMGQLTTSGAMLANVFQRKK
Method in brief: as §1

Measured: binding result

Sequence of ARHGEF28 (Q8N1W1 whole entry): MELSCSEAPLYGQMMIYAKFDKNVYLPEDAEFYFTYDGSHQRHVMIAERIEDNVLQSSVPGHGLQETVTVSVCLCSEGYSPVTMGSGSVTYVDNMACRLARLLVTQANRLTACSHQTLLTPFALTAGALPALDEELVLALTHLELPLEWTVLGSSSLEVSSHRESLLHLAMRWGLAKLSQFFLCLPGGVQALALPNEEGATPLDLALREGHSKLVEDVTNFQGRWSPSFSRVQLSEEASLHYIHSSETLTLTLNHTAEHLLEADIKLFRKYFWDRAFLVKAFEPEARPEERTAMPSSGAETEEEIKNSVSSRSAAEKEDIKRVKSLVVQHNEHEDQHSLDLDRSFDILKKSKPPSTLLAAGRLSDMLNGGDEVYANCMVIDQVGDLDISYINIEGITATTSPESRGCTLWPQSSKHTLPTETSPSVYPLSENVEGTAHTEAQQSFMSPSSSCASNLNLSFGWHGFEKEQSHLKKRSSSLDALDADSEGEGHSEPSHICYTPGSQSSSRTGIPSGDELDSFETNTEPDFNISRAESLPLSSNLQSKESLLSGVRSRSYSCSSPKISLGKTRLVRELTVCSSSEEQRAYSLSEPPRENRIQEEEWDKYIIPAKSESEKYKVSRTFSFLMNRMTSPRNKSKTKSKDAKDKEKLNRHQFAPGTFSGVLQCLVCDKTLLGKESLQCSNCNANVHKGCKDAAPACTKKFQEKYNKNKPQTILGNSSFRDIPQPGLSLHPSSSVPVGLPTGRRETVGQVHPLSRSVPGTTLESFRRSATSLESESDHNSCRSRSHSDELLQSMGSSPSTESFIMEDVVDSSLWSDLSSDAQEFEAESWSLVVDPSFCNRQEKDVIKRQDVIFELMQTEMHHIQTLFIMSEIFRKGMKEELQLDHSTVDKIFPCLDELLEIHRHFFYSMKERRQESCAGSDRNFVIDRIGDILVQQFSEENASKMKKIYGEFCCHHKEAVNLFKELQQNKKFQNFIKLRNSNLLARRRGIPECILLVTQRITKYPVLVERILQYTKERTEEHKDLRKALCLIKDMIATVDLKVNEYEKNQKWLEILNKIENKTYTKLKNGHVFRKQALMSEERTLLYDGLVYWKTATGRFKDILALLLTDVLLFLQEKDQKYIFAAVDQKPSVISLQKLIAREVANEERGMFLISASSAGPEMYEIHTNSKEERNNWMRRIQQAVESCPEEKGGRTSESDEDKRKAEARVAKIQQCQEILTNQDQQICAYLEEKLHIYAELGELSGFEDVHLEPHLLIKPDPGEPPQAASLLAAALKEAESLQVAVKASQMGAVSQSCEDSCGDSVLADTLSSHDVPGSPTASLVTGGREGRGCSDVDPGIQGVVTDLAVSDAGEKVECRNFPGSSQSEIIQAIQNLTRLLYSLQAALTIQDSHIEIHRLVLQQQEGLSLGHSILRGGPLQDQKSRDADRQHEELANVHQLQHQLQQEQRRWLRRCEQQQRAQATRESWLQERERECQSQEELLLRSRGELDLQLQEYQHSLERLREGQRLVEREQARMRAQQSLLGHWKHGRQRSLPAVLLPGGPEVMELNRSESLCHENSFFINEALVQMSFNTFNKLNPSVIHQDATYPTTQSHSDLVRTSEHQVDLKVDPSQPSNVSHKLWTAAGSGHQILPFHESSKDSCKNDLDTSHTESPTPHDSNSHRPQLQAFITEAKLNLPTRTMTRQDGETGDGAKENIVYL
Sequence of PTPN23 (Q9H3S7 whole entry): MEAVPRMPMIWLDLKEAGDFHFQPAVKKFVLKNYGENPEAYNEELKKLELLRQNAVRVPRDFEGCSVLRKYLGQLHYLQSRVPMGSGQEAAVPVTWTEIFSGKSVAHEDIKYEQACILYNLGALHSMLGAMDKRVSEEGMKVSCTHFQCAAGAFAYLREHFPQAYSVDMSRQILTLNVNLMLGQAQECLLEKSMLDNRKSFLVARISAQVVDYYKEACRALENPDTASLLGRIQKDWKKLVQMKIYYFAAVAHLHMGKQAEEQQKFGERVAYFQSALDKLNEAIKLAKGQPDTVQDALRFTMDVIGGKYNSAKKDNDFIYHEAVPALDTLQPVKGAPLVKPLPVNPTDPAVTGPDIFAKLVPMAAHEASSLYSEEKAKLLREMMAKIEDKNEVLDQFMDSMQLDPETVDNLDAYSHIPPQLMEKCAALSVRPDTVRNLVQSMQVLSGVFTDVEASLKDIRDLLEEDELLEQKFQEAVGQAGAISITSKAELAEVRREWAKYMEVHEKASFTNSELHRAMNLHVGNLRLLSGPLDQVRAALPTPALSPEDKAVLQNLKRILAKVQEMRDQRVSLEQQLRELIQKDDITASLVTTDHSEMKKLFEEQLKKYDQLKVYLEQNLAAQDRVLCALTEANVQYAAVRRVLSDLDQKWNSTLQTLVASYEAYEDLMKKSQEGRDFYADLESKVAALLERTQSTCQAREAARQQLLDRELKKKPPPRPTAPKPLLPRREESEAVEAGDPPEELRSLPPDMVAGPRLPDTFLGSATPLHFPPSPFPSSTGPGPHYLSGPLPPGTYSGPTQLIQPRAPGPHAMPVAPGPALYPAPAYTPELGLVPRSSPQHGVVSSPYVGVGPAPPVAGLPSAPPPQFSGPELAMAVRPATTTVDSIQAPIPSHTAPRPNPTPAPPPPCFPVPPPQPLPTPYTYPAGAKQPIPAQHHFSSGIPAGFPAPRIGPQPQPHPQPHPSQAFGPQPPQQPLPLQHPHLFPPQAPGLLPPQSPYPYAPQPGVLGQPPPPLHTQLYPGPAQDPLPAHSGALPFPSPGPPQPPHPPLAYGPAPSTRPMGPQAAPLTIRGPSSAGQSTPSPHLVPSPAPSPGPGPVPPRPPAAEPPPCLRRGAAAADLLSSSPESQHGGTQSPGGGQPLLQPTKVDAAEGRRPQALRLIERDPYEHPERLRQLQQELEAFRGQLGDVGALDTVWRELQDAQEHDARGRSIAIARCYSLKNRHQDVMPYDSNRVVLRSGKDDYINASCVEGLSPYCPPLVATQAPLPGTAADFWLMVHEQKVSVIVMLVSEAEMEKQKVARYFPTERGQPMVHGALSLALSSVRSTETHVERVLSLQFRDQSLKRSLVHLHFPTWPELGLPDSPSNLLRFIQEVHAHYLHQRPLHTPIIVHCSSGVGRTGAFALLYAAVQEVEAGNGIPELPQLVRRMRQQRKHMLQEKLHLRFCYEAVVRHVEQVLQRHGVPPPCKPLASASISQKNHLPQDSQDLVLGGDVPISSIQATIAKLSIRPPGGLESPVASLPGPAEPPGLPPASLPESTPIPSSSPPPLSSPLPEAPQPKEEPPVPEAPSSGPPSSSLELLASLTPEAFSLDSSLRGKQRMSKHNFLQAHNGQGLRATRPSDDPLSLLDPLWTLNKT

B1: LZTR1 R810W-FLAG (other, human, UniProt Q8N653 1-840, looked up)
chain: MAGPGSTGGQIGAAALAGGARSKVAPSVDFDHSCSDSVEYLTLNFGPFETVHRWRRLPPCDEFVGARRSKHTVVAYKDAIYVFGGDNGKTMLNDLLRFDVKDCSWCRAFTTGTPPAPRYHHSAVVYGSSMFVFGGYTGDIYSNSNLKNKNDLFEYKFATGQWTEWKIEGRLPVARSAHGATVYSDKLWIFAGYDGNARLNDMWTIGLQDRELTCWEEVAQSGEIPPSCCNFPVAVCRDKMFVFSGQSGAKITNNLFQFEFKDKTWTRIPTEHLLRGSPPPPQRRYGHTMVAFDRHLYVFGGAADNTLPNELHCYDVDFQTWEVVQPSSDSEVGGAEVPERACASEEVPTLTYEERVGFKKSRDVFGLDFGTTSAKQPTQPASELPSGRLFHAAAVISDAMYIFGGTVDNNIRSGEMYRFQFSCYPKCTLHEDYGRLWESRQFCDVEFVLGEKEECVQGHVAIVTARSRWLRRKITQARERLAQKLEQEAAPVPREAPGVAAGGARPPLLHVAIREAEARPFEVLMQFLYTDKIKYPRKGHVEDVLLIMDVYKLALSFQLCRLEQLCRQYIEASVDLQNVLVVCESAARLQLSQLKEHCLNFVVKESHFNQVIMMKEFERLSSPLIVEIVRRKQQPPPRTPLDQPVDIGTSLIQDMKAYLEGAGAEFCDITLLLDGHPRPAHKAILAARSSYFEAMFRSFMPEDGQVNISIGEMVPSRQAFESMLRYIYYGEVNMPPEDSLYLFAAPYYYGFYNNRLQAYCKQNLEMNVTVQNVLQILEAADKTQALDMKRHCLHIIVHQFTKVSKLPTLWSLSQQLLLDIIDSLASHISDKQCAELGADI
notes: Stably expressed in U87 cells by lentivirus; also called LZTR1-FLAG-R810W; LZTR1 RW; not shown: FLAG tag
binds: all assays above
